In patent publication US6897295 (MOCHIDA PHARMACEUTICAL, dated 2005):

What was measured:
[1] = target: T1, human Fas antigen on WC8A / WC8 cells (human, UniProt P25445 26-335); assay: concluded from cytotoxicity on WC8A cells and its inhibition by hFas-Fc and mFas-Fc
T1 construct: whole, on cells
T1 sequence (looked up): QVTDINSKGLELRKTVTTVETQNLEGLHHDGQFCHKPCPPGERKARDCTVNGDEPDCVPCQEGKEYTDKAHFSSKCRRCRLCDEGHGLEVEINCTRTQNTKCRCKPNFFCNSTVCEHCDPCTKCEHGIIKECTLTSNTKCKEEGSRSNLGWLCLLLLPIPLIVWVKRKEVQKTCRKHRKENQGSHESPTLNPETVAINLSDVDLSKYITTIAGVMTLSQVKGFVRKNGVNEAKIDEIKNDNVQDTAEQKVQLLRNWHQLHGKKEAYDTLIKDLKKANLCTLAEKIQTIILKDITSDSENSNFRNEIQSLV
Experimental: Cytotoxic activity of recombinant cells was measured in the same manner as described in Inventive Example 8, using the COS-7 cells transformed in the above step (2) as the effector cells and 10^6 cells of WR19L or WC8A as the target cells. The WC8A is a transformant which acquired human Fas antigen-expressing ability through the transformation of mouse WR19L cells (Itoh N. et al., *J. Immunol.*, vol. 151, pp. 621–627, 1993).
The thus ^51Cr-labeled cells (1 ×10^4) were mixed with COS/pEX-hFL1 cells at various mixing ratios and cultured at 37° C. for 4 hours, subsequently measuring cytotoxic activity using released ^51Cr as an index.

[2] = target: T2, rat Fas ligand (encoded by clone pTN24-15) (rat, UniProt P36940 1-278); assay: flow cytometry on d10S cells, phycoerythrin-labeled streptoavidin
T2 construct: Full-length type II membrane protein of 278 residues; It stood on d10S cells and on COS-7 cells transfected with pTN24-15; It was also used as NP-40 lysate of these cells (immunoprecipitation) and as protein purified from the d10S-12 membrane fraction (about 40 kD); also called Fas ligand on the d10S cells; COS/pTN24-15
T2 sequence: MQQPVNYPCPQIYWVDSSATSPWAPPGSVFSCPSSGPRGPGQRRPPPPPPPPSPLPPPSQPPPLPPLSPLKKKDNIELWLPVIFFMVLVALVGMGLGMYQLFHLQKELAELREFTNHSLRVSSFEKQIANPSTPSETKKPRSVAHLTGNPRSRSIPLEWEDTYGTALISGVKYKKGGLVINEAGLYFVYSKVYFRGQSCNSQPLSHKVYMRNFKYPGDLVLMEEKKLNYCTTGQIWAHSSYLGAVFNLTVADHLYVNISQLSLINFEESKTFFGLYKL
Experimental: PC60-d10S cells (to be referred to as "d10S" hereinafter; Rouvier E. et al., J. Exp. Med., vol. 177, pp. 195–200, 1993) were washed with a staining solution (phosphate-buffered saline (to be referred to as "PBS" hereinafter) containing 2% FCS and 0.02% NaN₃). About 1 ×10^6 of the cells were suspended in 50 μl of the staining solution supplemented with 5 μg/ml of rat anti-mouse FcγRII blocking antibody (Pharmingen). This suspension was dispensed into wells of a 96 well plate and incubated for 10 minutes on an ice bath. A 20 μg/ml solution of the biotinylated mFas-Fc was dispensed into wells of the resulting plate in 50 μl portions, and the incubation was continued for additional 30 minutes on an ice bath. […]
After washing the cells with the staining solution, cytometric analysis was carried out using FACScan (Becton Dickinson). As the result, a slight shift in the fluorescence intensity was observed which confirmed that said cells were stained with the biotinylated mFas-Fc (see FIG. 1(A). Control was expressed as an open area, and staining before 4 hours of treatment with PMA and ionomycin as a stippled area and staining after 4 hours of treatment with PMA and ionomycin as a closed area.

[3] = target: T1, human Fas antigen on WC8A / WC8 cells; assay: concluded from cytotoxicity of the culture supernatant on cells expressing human Fas antigen
[4] = target: T3, mouse Fas antigen on W4 cells (mouse, UniProt P25446 22-327); assay: concluded from cytotoxicity on W4 cells and its inhibition by mFas-Fc
T3 construct: whole, on cells; also called Fas antigen-expressing W4 cells
T3 sequence (looked up): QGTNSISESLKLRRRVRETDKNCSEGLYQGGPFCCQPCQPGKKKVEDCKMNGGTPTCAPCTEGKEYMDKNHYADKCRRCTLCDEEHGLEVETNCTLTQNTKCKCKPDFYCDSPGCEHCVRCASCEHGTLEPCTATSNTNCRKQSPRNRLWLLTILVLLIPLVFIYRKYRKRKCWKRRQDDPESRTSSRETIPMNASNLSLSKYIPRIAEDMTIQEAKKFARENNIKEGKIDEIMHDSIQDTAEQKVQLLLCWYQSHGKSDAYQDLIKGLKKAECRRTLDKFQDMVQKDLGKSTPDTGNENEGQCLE
Experimental: Cytotoxic activity of recombinant cells was measured in the same manner as described in Inventive Example 8, using the transformed COS cells (COS/pEF-MFLW4F) obtained in the above step (2) as the effector cells and 10^6 cells-of WR19L or W4 as the target cells. The W4 is a transformant which acquired mouse Fas antigen-expressing ability through the transformation of mouse WR19L cells. That is, 10^6 cells of WR19L or W4 were labeled with ^51Cr by culturing the cells at 37° C. for 2 hours in RPMI 1640 medium containing 20 μCi of (^51Cr) sodium chromate (Amersham).
The thus ^51Cr-labeled cells (1×10^4) were mixed with COS/pEF-MFLW4F cells at various mixing ratios and cultured at 37° C. for 4 hours, subsequently measuring cytotoxic activity using released ^51Cr as an index. […] In addition, the cytotoxicity of COS/pEF-MFLW4F cells was inhibited by the addition of 20 μg/ml of the chimera protein containing the extracellular domain of mouse Fas antigen (mFas-Fc) prepared in Inventive Example 1, but was not inhibited by the addition of the soluble type human TNF receptor (hTNFRβ-Fc).

B1: human Fas ligand (encoded by pEX-hFL1) (ligand)
chain: MQQPFNYPYPQIYWVDSSASSPWAPPGTVLPCPTSVPRRPGQRRPPPPPPPPPLPPPPPPPPLPPLPLPPLKKRGNHSTGLCLLVMFFMVLVALVGLGLGMFQLFHLQKELAELRESTSQMHTASSLEKQIGHPSPPPEKKELRKVAHLTGKSNSRSMPLEWEDTYGIVLLSGVKYKKGGLVINETGLYFVYSKVYFRGQSCNNLPLSHKVYMRNSKYPQDLVMMEGKMMSYCTTGQMWARSSYLGAVFNLTSADHLYVNVSELSLVNFEESQTFFGLYKL
notes: Full-length protein on COS-7 cells (COS/pEX-hFL1) or FDC-P1 cells (FLh1); In the western blots it stood as reduced SDS extract of the transfected COS cells; also called COS/pEX-hFL1; human Fas ligand-expressing COS cells
Q: Does B1 bind [1]?
A: binds

B2: chimera protein of the extracellular domain of mouse Fas (mFas) antigen and the Fc region of human IgG1 (hIgG1) (Fc fusion, UniProt P25446 22-169, looked up)
chain: QGTNSISESLKLRRRVRETDKNCSEGLYQGGPFCCQPCQPGKKKVEDCKMNGGTPTCAPCTEGKEYMDKNHYADKCRRCTLCDEEHGLEVETNCTLTQNTKCKCKPDFYCDSPGCEHCVRCASCEHGTLEPCTATSNTNCRKQSPRNR
modifications: biotinylated with NHS-LC-biotin in the flow cytometry; unlabelled in the other assays
notes: extracellular domain; Made from plasmid pFas-FcII in COS-7 or BTS-1 cells; also called mFas-Fc; biotinylated mFas-Fc; not shown: human IgG1 heavy chain constant region: hinge, CH2 and CH3 domains
Q: Does B2 bind [2]?
A: binds

B3: extracellular domain of the human Fas ligand secreted by transformant COS-1/pM1070 (ligand)
chain: QLFHLQKELAELRESTSQMHTASSLEKQIGHPSPPPEKKELRKVAHLTGKSNSRSMPLEWEDTYGIVLLSGVKYKKGGLVINETGLYFVYSKVYFRGQSCNNLPLSHKVYMRNSKYPQDLVMMEGKMMSYCTTGQMWARSSYLGAVFNLTSADHLYVNVSELSLVNFEESQTFFGLYKL
notes: Expressed behind the signal peptide of the human Fas antigen, which is not counted here; Tested as culture supernatant; also called culture supernatant of COS-1/pM1070
Q: Does B3 bind [3]?
A: binds

B4: chimera protein of TNF receptor beta and Fc region of human IgG1 (Fc fusion, UniProt P19438 30-211, looked up)
chain: LVPHLGDREKRDSVCPQGKYIHPQNNSICCTKCHKGTYLYNDCPGPGQDTDCRECESGSFTASENHLRHCLSCSKCRKEMGQVEISSCTVDRDTVCGCRKNQYRHYWSENLFQCFNCSLCLNGTVHLSCQEKQNTVCTCHAGFFLRENECVSCSNCKKSLECTKLCLPQIENVKGTEDSGTT
modifications: biotinylated with NHS-LC-biotin in the flow cytometry; unlabelled in the cytotoxicity assays
notes: extracellular domain; Control fusion protein; also called hTNFRβ-Fc; soluble type human TNF receptor; not shown: human IgG1 Fc region (hinge, CH2, CH3, as in pFas-FcII)
Q: Does B4 bind [2]?
A: no binding

B5: mouse Fas ligand (encoded by pEF-MFLW4) (ligand)
chain: MQQPMNYPCPQIFWVDSSATSSWAPPGSVFPCPSCGPRGPDQRRPPPPPPPVSPLPPPSQPLPLPPLTPLKKKDHNTNLWLPVVFFMVLVALVGMGLGMYQLFHLQKELAELREFTNQSLKVSSFEKQIANPSTPSEKKEPRSVAHLTGNPHSRSIPLEWEDTYGTALISGVKYKKGGLVINETGLYFVYSKVYFRGQSCNNQPLNHKVYMRNSKYPEDLVLMEEKRLNYCTTGQIWAHSSYLGAVFNLTSADHLYVNISQLSLINFEESKTFFGLYKL
notes: Full-length protein of 279 residues on transfected COS cells; In the western blots it stood as reduced SDS extract of these cells; also called COS/pEF-MFLW4F
Q: Does B5 bind [4]?
A: binds
